How the values were obtained:
Assay type in all cases: cell-based
[1] = test system: S. epidermidis HN1292; assay: ΔPlySs1 OD600 lysis, 1 hr
[2] = test system: S. simulans TNK3; assay: ΔPlySs1 OD600 lysis, 1 hr
[3] = test system: S. pneumoniae R36; assay: ΔPlySs1 OD600 lysis, 1 hr
[4] = test system: L. monocytogenes HER1084; assay: ΔPlySs1 OD600 lysis, 1 hr
[5] = test system: B. subtilis SL4; assay: ΔPlySs1 OD600 lysis, 1 hr
[6] = test system: S. suis strain 7711; assay: ΔPlySs1 growth inhibition in BHI broth; details: strain 7711 in BHI broth, overnight
Method: The optical density of each sample was measured continuously overnight in 96-well plate format. Overall, bacterial growth was delayed in a dose-dependent manner. However, for enzyme-concentrations that were sufficient to induce lysis in buffered solutions (130 and 50 μg/ml), the effect was quite minimal here. […] For all of the treated samples, one will note that the final optical densities are actually higher than that of the untreated sample. This is an artifact of the accumulation of aggregated bacterial debris that occurred in the presence of lytic enzyme.
Given the above experiments, the following optimal buffering conditions were employed for all further in vitro experiments with ΔPlySs1: 20 mM phosphate buffer, pH=7.8, 2 mM EDTA. A range of lysin concentrations, from 6.5-130 μg/ml, were introduced to live S. suis cells in this buffer. Three strains were considered particularly relevant: 7711, the serotype 7 strain that encodes PlySs1; 5735, the serotype 2 reference strain; and 7997, a highly virulent serotype 9 strain. In terms of bacterial viability, only the highest PlySs1-concentration (130 μg/ml) led to a >90% decrease in CFUs for 7711, S735, and 7997 after 1 hr treatment (TABLE 2). The lysin was also tested against actively-dividing cells in broth culture (strain 7711) (FIG. 20).

[7] = test system: S. suis strain (7711); assay: PlySs1 optimal biochemical conditions, turbidity reduction (OD600); details: for pH of maximal lysis: bis-tris-propane (BTP) buffer
Method: FIGS. 11A and 11B depicts ΔPlySs1 pH dependence. (A) Cells of host strain 7711 were suspended in phosphate citrate buffer (40/20 mM) at a range of pH-values from 4.6 to 8.0. ΔPlySs1 was added (110 μg/ml) and OD600 was measured over 60 min (horizontal axis) at 37° C. The vertical axis represents the treated/untreated OD600-ratio at each timepoint. For each pH-value, the curve depicts the running average of 3 independent experiments. Overall, activity was maximal at the upper end of the buffering range. (B) Here, bis-tris-propane (40 mM) was employed as the buffering agent with a pH-range from 7.0 to 9.7; ΔPlySs1 was again added to 110 μg/ml. Each curve depicts the running average of 3 experiments.
FIG. 12 depicts ΔPLySS1 NaCl dependence. S. suis 7711 cells were suspended in phosphate-citrate buffer pH=7.8 (40/20 mM). NaCl was added to the above concentrations, followed by ΔPlySs1 at 110 μg/ml. Optical density at 600 nm was observed over 60 min at 37° C. In this figure, the vertical axis represents the treated/untreated OD600-ratio for each NaCl concentration, averaged over 3 independent experiments.
FIGS. 13A and 13B provides assessment of ΔPlySs1 DTT and EDTA susceptibility. (A) ΔPlySs1 was pre-incubated for 1 hr with 5 mM DTT (a large molar excess) prior to addition to 7711 cells; activity was unchanged. (B) Here, various concentrations of EDTA were included in the buffered suspension of cells prior to addition of ΔPlySs1 (110 μg/ml lysin). For both images, the vertical axis represents the treated/untreated OD600-ratio for each condition, averaged over 3 independent experiments.
(A) A ΔPlySs1 stock solution was held at each of the above temperature for 30 minutes, followed by addition to 7711 cells (270 μg/ml final enzyme concentration, final temperature=37° C., ideal buffering conditions). The curves in this image represent running averages of 3 individual experiments. In each case, complete loss of activity was observed between the 45° C. and 50° C. samples. The 3 hottest samples show a slightly higher OD600 reading than the untreated control due to flocculation of ΔPlySs1 upon denaturation. (B) The above experiment was repeated, but with 6 hours of heat-treatment prior to the assay. […] The 40° C. sample maintained essentially native activity.
The optimal biochemical conditions for PlySs1 were determined against live cells of the encoding S. suis strain (7711). For these experiments, activity was gauged through the degree of turbidity reduction (OD600) of an aqueous bacterial suspension following the addition of lysin. The pH-dependence of the enzyme was first addressed using two buffer sets with adjacent pH ranges, citrate/phosphate: 4.6-8.0; and bis-tris-propane (BTP): 7.0-9.7. An extended spectrum of lysis was observed, from 5.4-9.4 (FIG. 11A). In BTP, lysis was maximal from 8.2-9.0; at commensurate pH-values, however, the magnitude of the OD-drop was slightly more pronounced in citrate/phosphate (FIG. 11B).
At constant enzyme concentrations, bacteriolysis varied little from 0-1000 mM NaCl, with only small numeric increases under the most hypotonic conditions (FIG. 12). […] The thermal stability of PlySs1 was examined by incubating the enzyme at various elevated temperatures prior to use (the OD-drop experiment itself was always conducted at 37° C.). When held at 35° C.-60° C. for 30 min, lysin activity was virtually unaffected until 50° C., at which point it was completely abolished (FIG. 14A). […] The latter corresponds to typical porcine body temperature.

[8] = test system: S. uberis 27598; assay: ΔPlySs1 OD600 lysis, 1 hr

B1: ΔPlySs1: truncated PlySs1 lysin with N-terminal enzymatic and central binding domains, N-terminal 254 amino acids, SEQ ID NO:2 (protein, listed as Streptococcus suis)
chain: MTINLETSIRWMSDRVGKVSYSMDYRNGPNSYDCSSAVYYALMAGGAISAGWAVNTEYMHDWLIRNGYVLVAENKPFNAQRHDVCILGKRGYSSGAGGHVVIFVDNVNVIHCNYARNGISIDNYNQVHRGMYYYLYRPANQPSISNKSLDQLVKETLAGVHGNGDTRKASLGSQYEAVMAVINGKASASEKSDEELAREVLAGKHGAGEDRKRSLGPRYEPVQAKVNELLKAKEKPSETAKNEPQTVQFKEDGDL
[1]; 6.5 μg/ml
  1-hour treated/untreated OD600-ratio: 1.04
[1]; 13 μg/ml
  1-hour treated/untreated OD600-ratio: 1.00
[1]; 30 μg/ml
  1-hour treated/untreated OD600-ratio: 0.96
[1]; 65 μg/ml
  1-hour treated/untreated OD600-ratio: 0.94
[1]; 130 μg/ml
  1-hour treated/untreated OD600-ratio: 0.87
[2]; 6.5 μg/ml
  1-hour treated/untreated OD600-ratio: 0.96
[2]; 13 μg/ml
  1-hour treated/untreated OD600-ratio: 1.00
[2]; 30 μg/ml
  1-hour treated/untreated OD600-ratio: 1.00
[2]; 65 μg/ml
  1-hour treated/untreated OD600-ratio: 1.00
[2]; 130 μg/ml
  1-hour treated/untreated OD600-ratio: 0.96
[3]; 6.5 μg/ml
  1-hour treated/untreated OD600-ratio: 0.25
[3]; 13 μg/ml
  1-hour treated/untreated OD600-ratio: 0.22
[3]; 30 μg/ml
  1-hour treated/untreated OD600-ratio: 0.14
[3]; 65 μg/ml
  1-hour treated/untreated OD600-ratio: 0.16
[3]; 130 μg/ml
  1-hour treated/untreated OD600-ratio: 0.12
[4]; 6.5 μg/ml
  1-hour treated/untreated OD600-ratio: 0.63
[4]; 13 μg/ml
  1-hour treated/untreated OD600-ratio: 0.52
[4]; 30 μg/ml
  1-hour treated/untreated OD600-ratio: 0.26
[4]; 65 μg/ml
  1-hour treated/untreated OD600-ratio: 0.14
[4]; 130 μg/ml
  1-hour treated/untreated OD600-ratio: 0.04
[5]; 6.5 μg/ml
  1-hour treated/untreated OD600-ratio: 1.07
[5]; 13 μg/ml
  1-hour treated/untreated OD600-ratio: 1.05
[5]; 30 μg/ml
  1-hour treated/untreated OD600-ratio: 1.04
[5]; 65 μg/ml
  1-hour treated/untreated OD600-ratio: 1.03
[5]; 130 μg/ml
  1-hour treated/untreated OD600-ratio: 0.96
[6]
  growth inhibition of actively-dividing cells: could not inhibit S. suis growth outright
[7]; 0-1000 mM NaCl, constant enzyme concentration
  effect of salt concentration on bacteriolysis: varied little
[7]; 6-hr incubation at 40° C.
  thermal stability, activity after heat treatment: unaffected
[7]; 6-hr incubation at 45° C.
  thermal stability, activity after heat treatment: partial decrease in activity
[7]; S. suis 7711
  pH of maximal lysis: 9.0
[7]; S. suis 7711, listed as PlySs1
  pH of maximal lysis: 8.2-9.0
[7]; S. suis 7711, citrate/phosphate 4.6-8.0 and bis-tris-propane 7.0-9.7
  pH spectrum of lysis: 5.4-9.4
[7]; exposure to an excess of DTT (5 mM, 1 hr pre-incubation)
  effect of DTT on activity: did not negatively impact activity
[7]; exposure to an excess of EDTA
  effect of EDTA on activity: did not negatively impact activity
[7]; held at 35° C.-60° C. for 30 min before assay at 37° C.
  temperature at which activity is completely abolished: 50 °C
[8]; 6.5 μg/ml
  1-hour treated/untreated OD600-ratio: 0.42
[8]; 13 μg/ml
  1-hour treated/untreated OD600-ratio: 0.23
[8]; 30 μg/ml
  1-hour treated/untreated OD600-ratio: 0.16
[8]; 65 μg/ml
  1-hour treated/untreated OD600-ratio: 0.14
[8]; 130 μg/ml
  1-hour treated/untreated OD600-ratio: 0.12

Source: patent publication US20140179594A1, “STREPTOCOCCUS BACTERIOPHAGE LYSINS FOR TREATMENT OF GRAM POSITIVE BACTERIA IN COMPANION ANIMALS AND LIVESTOCK” (priority 2011, published 2014)
